Target: T1, His-tagged Proliferating Cell Nuclear Antigen (PCNA) (human, UniProt P12004 1-261)
T1 construct: human PCNA, cloned into the NdeI and XhoI sites of pET28a for expression with an N-terminal His-tag; Used for ITC and for the peptide pull-downs; also called His-tagged PCNA; His-tagged recombinant PCNA; source: E. coli, from pET28a, purified (Ni-NTA, Q-sepharose, Superdex S-200); not shown: His tag, N-terminal, kept
Assay: ITC; 15 μM PCNA in the cell, peptides injected stepwise (20 injections of 2 μl), 25 °C, PBS with 1 mM β-mercaptoethanol, single set of independent binding sites model
Conditions: both partners purified

T1 sequence (P12004 whole entry): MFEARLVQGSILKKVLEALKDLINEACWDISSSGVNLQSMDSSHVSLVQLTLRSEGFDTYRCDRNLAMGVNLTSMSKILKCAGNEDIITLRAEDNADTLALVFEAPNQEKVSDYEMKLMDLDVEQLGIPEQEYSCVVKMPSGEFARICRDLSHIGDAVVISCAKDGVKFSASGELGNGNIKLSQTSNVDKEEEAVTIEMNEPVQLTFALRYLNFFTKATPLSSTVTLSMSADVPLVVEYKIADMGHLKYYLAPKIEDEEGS

Kd	stoichiometry N	Binder
9.24 µM	1 peptide per PCNA monomer	SKHGSDITRFLVKK [ZRANB3 APIM motif synthetic peptide used for ITC]
4.8 µM	1 peptide per PCNA monomer	EKEKQHDIRSFFVPQ [ZRANB3 PIP box synthetic peptide used for ITC]

Reference: PMC5481773, “Structural insights into the function of ZRANB3 in replication stress response” (Nature Communications, 2017)
